According to the supplement of paper PMC6755084:

B1: minF1; the commonest letter at each place (parent)
chain: GAGACCGCAACTGAAAAGTTGTTATCAGAAATGGATGGGTTGAATTTCTGCACGTAGAAGCAAAAGGC

Variants of: B1
Assay: fraction ligated after 30 min (ligated reads / total reads); higher = more ligase activity
Conditions: with F1*subA RNA substrate (template-directed ligation), 42 °C
Experimental: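 Chip-synthesised pool of minF1 ligase ribozyme variants (single and double substitutions, single to quadruple deletions, bulge and P2 designed variants) was transcribed with T7 and reacted as a pool with excess substrate F1*subA for 30 min at 42 C in 50 mM EPPS pH 8.5, 25 mM MgCl2. Ligated and unligated RNAs were separated by PAGE, barcoded by RT and deep sequenced; fraction ligated = ligated reads / total reads, relative activity = FL / FL of wild-type minF1 (0.76); sequencing FL correlated with PAGE (R2 = 0.98). Sequences are the DNA template of the ribozyme.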

Compared with C26A T32C, C26A T32G is lower in fraction ligated: 0.0036 for the first, 0.00324 for the second.

Going from C26A T36A to C26A T36C, the fraction ligated rises from 0.0039 to 0.00707.

Going from C26A T36G to C26G, the fraction ligated rises from 0.0133 to 0.0466.

First: C26G A27C
Second: C26G A27G
The fraction ligated of the first is higher: 0.0501 for the first, 0.0369 for the second.

Compared with C26G A27T, C26G A29C is lower in fraction ligated: 0.0725 for the first, 0.0431 for the second.

First: C26G A29G
Second: C26G A29T
The fraction ligated of the first is lower: 0.0311 for the first, 0.0347 for the second.

First: C26G A30C
Second: C26G A30G
The fraction ligated of the first is lower: 0.0436 for the first, 0.0544 for the second.

First: C26G A30T
Second: C26G A31C
The fraction ligated of the first is higher: 0.0435 for the first, 0.0238 for the second.

First: C26G A31G
Second: C26G A31T
The fraction ligated of the first is higher: 0.0731 for the first, 0.0387 for the second.

First: C26G A35C
Second: C26G A35G
The fraction ligated of the first is lower: 0.00486 for the first, 0.00566 for the second.

First: C26G A35T
Second: C26G A43C
The fraction ligated of the first is lower: 0.000597 for the first, 0.00457 for the second.

First: C26G A43G
Second: C26G A43T
The fraction ligated of the first is higher: 0.00467 for the first, 0.00299 for the second.

Going from C26G A44C to C26G A44G, the fraction ligated rises from 0.00656 to 0.0117.

C26G A44T and C26G G28A are the same in fraction ligated: 0.0283 for the first, 0.0283 for the second.

First: C26G G28C
Second: C26G G28T
The fraction ligated of the first is lower: 0.0331 for the first, 0.0589 for the second.

Compared with C26G G33A, C26G G33C is lower in fraction ligated: 0.0636 for the first, 0.00704 for the second.

First: C26G G33T
Second: C26G G34A
The fraction ligated of the first is lower: 0.0124 for the first, 0.0747 for the second.

Compared with C26G G34C, C26G G34T is lower in fraction ligated: 0.0293 for the first, 0.00574 for the second.

Compared with C26G G37A, C26G G37C is higher in fraction ligated: 0.00254 for the first, 0.00497 for the second.

Compared with C26G G37T, C26G G42A is lower in fraction ligated: 0.00384 for the first, 0.00168 for the second.

Going from C26G G42C to C26G G42T, the fraction ligated rises from 0.00152 to 0.00229.

Compared with C26G T32A, C26G T32C is lower in fraction ligated: 0.00367 for the first, 0.00208 for the second.

Going from C26G T32G to C26G T36A, the fraction ligated falls from 0.00509 to 0.00192.

Going from C26G T36C to C26G T36G, the fraction ligated rises from 0.00195 to 0.00843.

Compared with C26T, C26T A27C is higher in fraction ligated: 0.433 for the first, 0.79 for the second.

Going from C26T A27G to C26T A27T, the fraction ligated rises from 0.544 to 0.816.

Compared with C26T A29C, C26T A29G is higher in fraction ligated: 0.39 for the first, 0.417 for the second.

Going from C26T A29T to C26T A30C, the fraction ligated falls from 0.43 to 0.333.

Compared with C26T A30G, C26T A30T is lower in fraction ligated: 0.5 for the first, 0.339 for the second.

Compared with C26T A31C, C26T A31G is higher in fraction ligated: 0.312 for the first, 0.52 for the second.

Compared with C26T A31T, C26T A35C is lower in fraction ligated: 0.404 for the first, 0.00406 for the second.

Compared with C26T A35G, C26T A35T is lower in fraction ligated: 0.0104 for the first, 0.0022 for the second.

First: C26T A43C
Second: C26T A43G
The fraction ligated of the first is lower: 0.00569 for the first, 0.0095 for the second.

First: C26T A43T
Second: C26T A44C
The fraction ligated of the first is lower: 0.0127 for the first, 0.091 for the second.

Going from C26T A44G to C26T A44T, the fraction ligated rises from 0.142 to 0.246.

Going from C26T G28A to C26T G28C, the fraction ligated rises from 0.362 to 0.61.

Compared with C26T G28T, C26T G33A is lower in fraction ligated: 0.55 for the first, 0.481 for the second.

First: C26T G33C
Second: C26T G33T
The fraction ligated of the first is higher: 0.325 for the first, 0.206 for the second.

Going from C26T G34A to C26T G34C, the fraction ligated falls from 0.623 to 0.00303.

Going from C26T G34T to C26T G37A, the fraction ligated falls from 0.0063 to 0.00482.

First: C26T G37C
Second: C26T G37T
The fraction ligated of the first is lower: 0.00325 for the first, 0.00513 for the second.

First: C26T G42A
Second: C26T G42C
The fraction ligated of the first is higher: 0.0165 for the first, 0.00245 for the second.

Going from C26T G42T to C26T T32A, the fraction ligated falls from 0.00392 to 0.00354.

Going from C26T T32C to C26T T32G, the fraction ligated rises from 0.00511 to 0.00682.

Going from C26T T36A to C26T T36C, the fraction ligated falls from 0.0132 to 0.00419.

Compared with C26T T36G, A27C is higher in fraction ligated: 0.0188 for the first, 0.694 for the second.

First: A27C A29C
Second: A27C A29G
The fraction ligated of the first is higher: 0.623 for the first, 0.61 for the second.

Going from A27C A29T to A27C A30C, the fraction ligated falls from 0.501 to 0.465.

Going from A27C A30G to A27C A30T, the fraction ligated falls from 0.759 to 0.403.

Going from A27C A31C to A27C A31G, the fraction ligated rises from 0.421 to 0.687.

First: A27C A31T
Second: A27C A35C
The fraction ligated of the first is lower: 0.455 for the first, 0.481 for the second.

Going from A27C A35G to A27C A35T, the fraction ligated rises from 0.112 to 0.176.

Going from A27C A43C to A27C A43G, the fraction ligated falls from 0.0394 to 0.0284.

Compared with A27C A43T, A27C A44C is higher in fraction ligated: 0.0472 for the first, 0.244 for the second.

Going from A27C A44G to A27C A44T, the fraction ligated rises from 0.38 to 0.441.

Going from A27C G28A to A27C G28C, the fraction ligated rises from 0.503 to 0.61.

First: A27C G28T
Second: A27C G33A
The fraction ligated of the first is lower: 0.628 for the first, 0.835 for the second.

Going from A27C G33C to A27C G33T, the fraction ligated rises from 0.817 to 0.818.

Going from A27C G34A to A27C G34C, the fraction ligated falls from 0.15 to 0.00877.

First: A27C G34T
Second: A27C G37A
The fraction ligated of the first is higher: 0.0114 for the first, 0.0106 for the second.

Going from A27C G37C to A27C G37T, the fraction ligated rises from 0.004 to 0.0224.

First: A27C G42A
Second: A27C G42C
The fraction ligated of the first is higher: 0.171 for the first, 0.0124 for the second.

Going from A27C G42T to A27C T32A, the fraction ligated falls from 0.0494 to 0.0275.

Going from A27C T32C to A27C T32G, the fraction ligated falls from 0.0159 to 0.0136.

First: A27C T36A
Second: A27C T36C
The fraction ligated of the first is higher: 0.0988 for the first, 0.0483 for the second.

Compared with A27C T36G, A27G is higher in fraction ligated: 0.0955 for the first, 0.803 for the second.

Going from A27G A29C to A27G A29G, the fraction ligated falls from 0.809 to 0.797.

Going from A27G A29T to A27G A30C, the fraction ligated falls from 0.808 to 0.803.

First: A27G A30G
Second: A27G A30T
The fraction ligated of the first is higher: 0.824 for the first, 0.78 for the second.

Compared with A27G A31C, A27G A31G is higher in fraction ligated: 0.802 for the first, 0.806 for the second.

Compared with A27G A31T, A27G A35C is lower in fraction ligated: 0.816 for the first, 0.0489 for the second.

First: A27G A35G
Second: A27G A35T
The fraction ligated of the first is higher: 0.332 for the first, 0.0618 for the second.

Compared with A27G A43C, A27G A43G is lower in fraction ligated: 0.132 for the first, 0.105 for the second.

First: A27G A43T
Second: A27G A44C
The fraction ligated of the first is lower: 0.169 for the first, 0.69 for the second.

Going from A27G A44G to A27G A44T, the fraction ligated rises from 0.746 to 0.774.

First: A27G G28A
Second: A27G G28C
The fraction ligated of the first is higher: 0.797 for the first, 0.793 for the second.

First: A27G G28T
Second: A27G G33A
The fraction ligated of the first is higher: 0.824 for the first, 0.814 for the second.

Going from A27G G33C to A27G G33T, the fraction ligated rises from 0.35 to 0.807.

First: A27G G34A
Second: A27G G34C
The fraction ligated of the first is higher: 0.207 for the first, 0.00194 for the second.

Compared with A27G G34T, A27G G37A is lower in fraction ligated: 0.00742 for the first, 0.00716 for the second.

First: A27G G37C
Second: A27G G37T
The fraction ligated of the first is lower: 0.00672 for the first, 0.0232 for the second.

Going from A27G G42A to A27G G42C, the fraction ligated falls from 0.361 to 0.0187.

Compared with A27G G42T, A27G T32A is lower in fraction ligated: 0.16 for the first, 0.0468 for the second.

With A27G T32C the fraction ligated was 0.0134.
